Test results taken from patent publication US20260167706A1, “ANTI-ADRENOMEDULLIN (ADM) ANTIBODY OR ANTI-ADM ANTIBODY FRAGMENT OR ANTI-ADM NON-IG SCAFFOLD FOR USE IN THERAPY OR PREVENTION OF SHOCK” (ADRENOMED AG, priority 2022, published 2026).

Columns and labels:
[1] = target: human recombinant adrenomedullin receptor (CRLR + RAMP3) (human)
[2] = target: human recombinant adrenomedullin receptor (CRLR + RAMP3) (human); remark: listed apart in the source

IC50 (read off the curve); cAMP, % inhibition, 0.67 nM mADM as agonist [1]: 2 µM | IC50 (read off the curve); cAMP, % inhibition, 5.63 nM hADM as agonist [2]: 0.2 µM
Substance: human ADM 22-52 (from UniProt P35318) (peptide)
